Measured values from doi:10.1101/2024.04.15.589559.

Molecular target: pre-formed CPX-SNARE complex (Complexin 1 with Syntaxin1A, SNAP25B and VAMP2) (human | rat | mouse) (UniProt O14810)
Sequence (O14810 whole entry, chain 1 of 4): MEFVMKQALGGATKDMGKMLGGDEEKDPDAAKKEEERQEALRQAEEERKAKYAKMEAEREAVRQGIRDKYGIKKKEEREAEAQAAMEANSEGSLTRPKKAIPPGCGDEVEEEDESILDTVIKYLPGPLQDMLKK
Sequence (P32851 whole entry, chain 2 of 4, further chain): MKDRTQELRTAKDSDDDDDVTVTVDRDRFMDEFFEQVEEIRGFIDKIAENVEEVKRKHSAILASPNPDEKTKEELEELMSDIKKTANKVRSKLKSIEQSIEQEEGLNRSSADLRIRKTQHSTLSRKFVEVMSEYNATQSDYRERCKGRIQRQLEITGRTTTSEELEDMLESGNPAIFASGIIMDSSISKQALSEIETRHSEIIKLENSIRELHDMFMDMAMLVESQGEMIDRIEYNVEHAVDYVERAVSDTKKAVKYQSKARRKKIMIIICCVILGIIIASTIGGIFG
Sequence (P60879 whole entry, chain 3 of 4, further chain): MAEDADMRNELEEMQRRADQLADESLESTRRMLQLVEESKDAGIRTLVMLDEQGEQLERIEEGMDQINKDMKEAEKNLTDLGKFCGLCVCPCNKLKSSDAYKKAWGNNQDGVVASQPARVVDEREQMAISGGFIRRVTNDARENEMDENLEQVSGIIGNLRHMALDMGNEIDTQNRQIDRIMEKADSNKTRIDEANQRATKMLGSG
Sequence (P63027 whole entry, chain 4 of 4, further chain): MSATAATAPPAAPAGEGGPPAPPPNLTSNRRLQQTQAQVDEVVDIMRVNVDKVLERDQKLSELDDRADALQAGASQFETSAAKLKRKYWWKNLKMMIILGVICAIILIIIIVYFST

With “Syt7^DA (SUMO-Syt1^TMD-Syt7 with D225A, D227A, D233A, D357A, D359A) (from UniProt Q62747 17-403)” the reduction in Ca2+ (100 μM)-evoked fusion of Syt1^WT/VAMP2 vesicles with Syt7^DA in the t-SNARE bilayer, 1:800 to 1:200 protein-to-lipid (~30% to ~70%) was 70%.
